The source of these data is article PMC10936776, “Structural and functional characterization of AfsR, an SARP family transcriptional activator of antibiotic biosynthesis in Streptomyces” (PLOS Biology, 2024).

B1: Streptomyces coelicolor RNA polymerase sigma factor σ^HrdB (natural protein, S. coelicolor)
chain: MSASTSRTLPPEIAESVSVMALIERGKAEGQIAGDDVRRAFEADQIPATQWKNVLRSLNQILEEEGVTLMVSAAEPKRTRKSVAAKSPAKRTATKAVAAKPVTSRKATAPAAPAAPATEPAAVEEEAPAKKAAAKKTTAKKATAKKTTAKKAAAKKTTAKKEDGELLEDEATEEPKAATEEPEGTENAGFVLSDEDEDDAPAQQVAAAGATADPVKDYLKQIGKVPLLNAEQEVELAKRIEAGLFAEDKLANSDKLAPKLKRELEIIAEDGRRAKNHLLEANLRLVVSLAKRYTGRGMLFLDLIQEGNLGLIRAVEKFDYTKGYKFSTYATWWIRQAITRAMADQARTIRIPVHMVEVINKLARVQRQMLQDLGREPTPEELAKELDMTPEKVIEVQKYGREPISLHTPLGEDGDSEFGDLIEDSEAVVPADAVSFTLLQEQLHSVLDTLSEREAGVVSMRFGLTDGQPKTLDEIGKVYGVTRERIRQIESKTMSKLRHPSRSQVLRDYLD
notes: principal sigma factor HrdB, S. coelicolor; region 1.1 disordered in the map; Stood in the assay as part of the RNAP σ^HrdB-holoenzyme; also called σ subunit; σ R4 (region 4); source: purified as described previously [37]
B2: AfsR (dephosphorylated AfsR) (Streptomyces coelicolor A3(2)) (protein)
chain: MDGGPRVPEQRRPGFPAEEEESGALRFGVLGPVRAWRDGETLATGSPQQRALLAALLLREGRTATAGELIDALWGEEPPSQALAAVRTYASRLRKVLDPGVLVSESGGYAVRGLAEGALDLARAQDLASAAEKARSAGDLCHARDLLRRALDLWDGEVLAGVPGPYAQTQRVRLGEWRLQLLETRLDMDLDQGCHAEAVSELTALTAAHPLRERLRELLMLALYRSGRQAEALAVYADTRRLLADELGVDPRPGLQELQQRILQADPALAELSAATAETATATLRPAQLPATVSDFTGRAAFVRELSDVLSAASGESASGRVMAVSALAGIGGVGKTTLAVHVAHRARAAFPDGQLYVDLQGAGARPAEPETVLGSFLRALGTADSAIPDSLEERAALYRSVLDGRRVLVLLDNARDAAQVRPLLPGTDGCAALVTARVRMVDLAGAHLVDLDVMAPEEALALFTKIVGEERVASERQAALDVVGACGFLPLAIRIAASRLAARRTWTVSVLAAKLADERRRLDELQAGDQAVEATFELGYGQLEPAQARAFRLLGLADGPDISLAAAAAVLDLPAQDTEDLLESLVDTSLLESAAPGRYRFHDLVRLYARACAERTERDGNAPSERGAALSRLLDFYLATAAGVYAIERPGDRLVDGLEPTEYPGLTFTEGSAALDWLYTEAAPLLACVRQSAGTARLRRAVDLLWAAKDLTESGANSHQYEATARAMCDATGSAADTRAEGRARTVLSDVLLVSGRIEHAEEEARLAMRLAGSAEDSAAVSWVANNRGLVCLHQRRYAEGKGLFHQAIAGFRATDNRAGEASALSNLSRAQLGMGNVAEAVDIARQGLAVYAELGRTMRLANGHFALGVALTRAGRHEEALGEFAEALDLFGDHRQRLWEGATNFRLAEVHLAAGRPSSAAQHAEQALALGCIGGDRMRGNVLALLGRALSALGQADRARACWREALSLYEQHDAQEVGEVRALLARSVAR
notes: full-length, 993 residues, pET28a (His-tagged), E. coli BL21(DE3), Ni-NTA and SEC; wild type treated with lambda phosphatase (E. coli protein carries pT337); mainly monomer
B3: AfsR T337A mutant (natural protein, S. coelicolor, UniProt P25941 1-993, looked up)
chain: B2 chain with T337A
notes: AfsR, S. coelicolor, full-length protein with T337A; Preincubated with afsS promoter DNA and 1 mM ATPγS for AfsR-TIC; Vector and host of the mutant are surmised from the wild type
B4: AfsR 4E mutant (S391E/T337E/T506E/S953E) (natural protein, S. coelicolor, UniProt P25941 1-993, looked up)
chain: B2 chain with T337E, S391E, T506E, S953E
notes: AfsR, S. coelicolor, with glutamate substitutions at all 4 phosphorylation sites of NOD and TPR; Likely made like wild-type AfsR (pET28a, E. coli BL21(DE3))
B5: phosphorylated AfsR (phos-AfsR) (Streptomyces coelicolor A3(2)) (protein)
chain: B2 chain
notes: full-length, 993 residues, pET28a (His-tagged), E. coli BL21(DE3); dephosphorylated, then phosphorylated in vitro by AfsKΔC (pS22, pT337, pS391, pT506, pS953 by MS), SEC
B6: Streptomyces coelicolor RNA polymerase α subunit (natural protein, S. coelicolor)
chain: MLIAQRPSLTEEVVDEFRSRFVIEPLEPGFGYTLGNSLRRTLLSSIPGAAVTSIRIDGVLHEFTTVPGVKEDVTDLILNIKQLVVSSEHDEPVVMYLRKQGPGLVTAADIAPPAGVEVHNPDLVLATLNGKGKLEMELTVERGRGYVSAVQNKQVGQEIGRIPVDSIYSPVLKVTYKVEATRVEQRTDFDKLIVDVETKQAMRPRDAMASAGKTLVELFGLARELNIDAEGIDMGPSPTDAALAADLALPIEELELTVRSYNCLKREGIHSVGELVARSEADLLDIRNFGAKSIDEVKAKLAGMGLALKDSPPGFDPTAAADAFGADDDADAGFVETEQY
notes: RNA polymerase subunit alpha, S. coelicolor; Stood in the assay as a subunit of the RNAP core in the holoenzyme; density for one αCTD is seen; also called αCTD (C-terminal domain of the α subunit); source: S. coelicolor RNAP purified as described previously [37]

Data set [1] deals with T1, AfsR (dephosphorylated AfsR) (Streptomyces coelicolor, UniProt P25941).
T1 construct: full-length, 993 residues, pET28a (His-tagged), E. coli BL21(DE3), Ni-NTA and SEC; wild type treated with lambda phosphatase (E. coli protein carries pT337); mainly monomer
Kind of data set: in vitro MangoIII transcription assay after preincubation. To be noted: 500 nM dephosphorylated AfsR, 1 mM GTP preincubation 10 min 30 °C, RNAP-σHrdB, RbpA, CarD; activator. It is filed as biochemical.

The data set “AfsR T337A mutant” has as its target B3. Kind of data set: cryo-EM structure; AfsR_(T337A)-TIC: 32 uM AfsR_(T337A) preincubated with 5 uM afsS promoter DNA and 1 mM ATPγS, mixed with RNAP core, σ^HrdB, CarD, RbpA; assembling buffer; Superose 6; nominal resolution 3.63 Å, SARP region 5.10 Å. To be noted: both partners purified.
Substrate in data set [2]: Nc1ncnc2c1ncn2[C@@H]1O[C@H](COP(=O)(O)OP(=O)(O)OP(=O)(O)O)[C@@H](O)[C@H]1O
Kind of data set: Malachite green phosphate ATPase assay. It is filed as biochemical, Streptomyces coelicolor. To be noted: 5 μM protein, 20 mM Tris-HCl pH 7.5, 150 mM NaCl, 5 mM MgCl2, 30 min.

Data set [3] concerns the target T2, Streptomyces coelicolor RNA polymerase β subunit (S. coelicolor, UniProt Q9L0L0 1-1161).
T2 construct: RNA polymerase subunit beta, S. coelicolor; Stood in the assay as a subunit of the RNAP core in the holoenzyme; also called RNAP β; β flap; source: S. coelicolor RNAP purified as described previously [37]
Description: cryo-EM structure; AfsR_(T337A)-TIC: 32 uM AfsR_(T337A) preincubated with 5 uM afsS promoter DNA and 1 mM ATPγS, mixed with RNAP core, σ^HrdB, CarD, RbpA; assembling buffer; Superose 6; nominal resolution 3.63 Å, SARP region 5.10 Å. As to conditions: both partners purified.

Data set [4] deals with the molecule itself. The description is as above.
For data set [5], the target named is T3, Streptomyces coelicolor RNA polymerase β′ subunit (S. coelicolor, UniProt Q8CJT1 1-1299).
T3 construct: RNA polymerase subunit beta', S. coelicolor; Stood in the assay as a subunit of the RNAP core in the holoenzyme; also called RNAP β′; β′ ZBD; source: S. coelicolor RNAP purified as described previously [37]
Described as above. As to conditions: both partners purified.

Data set [6] concerns the molecule itself. Kind of data set: SEC; Superdex 200; 20 mM Tris pH 8.0, 150 mM NaCl, 5% glycerol; protein alone, without DNA. A general note: In gel filtration, larger molecules generally elute earlier.
The mark [7] stands for this setting: phosphomimetic 4E mutant, phosphatase treatment not stated.

Changes are numbered by the printed parent chain. Names and notes keep the numbering of the source.

With `Nc1nc2c(ncn2[C@@H]2O[C@H](COP(=O)(O)OP(=O)(O)OP(=O)(O)O)[C@@H](O)[C@H]2O)c(=O)[nH]1` [GTP], the transcription activation result in data set [1] was “preincubating dephosphorylated AfsR with ATP or GTP significantly enhances its transcription activation”.
B1: the binding result in the data set with AfsR T337A mutant is recorded as “binds”.
A word on the Km: it is the substrate concentration at which the rate is half of its maximum. Broadly, the kcat is the number of substrate molecules converted per active site and unit of time at saturation. Regarding B2, in data set [2] (dephosphorylated), the Km is 1.16 ± 0.231 mM and the catalytic constant (kcat) is 0.0453 ± 0.00356 s⁻¹.
As to B3, the binding result in data set [3], in data set [4] and in data set [5] was “binds” each time.
As for B4, the binding result in data set [6] is “binds”. In addition, in data set [2] (setting [7]), the Km is on record as 0.995 ± 0.152 mM and the kcat was 0.147 ± 0.00841 s⁻¹.
For B5, in data set [2] (phosphorylated by AfsKΔC), the Km is given as 0.767 ± 0.163 mM and the kcat worked out at 0.070 ± 0.00515 s⁻¹.
As to B6, the binding result with AfsR T337A mutant is on record as “binds”.
